One may read the Kd as the concentration at which binding is half-saturated.

To fix the notation:
B1: recombinant mouse radixin (natural protein)
chain: MPKPINVRVTTMDAELEFAIQPNTTGKQLFDQVVKTVGLREVWFFGLQYVDSKGYSTWLKLNKKVTQQDVKKENPLQFKFRAKFFPEDVSEELIQEITQRLFFLQVKEAILNDEIYCPPETAVLLASYAVQAKYGDYNKEIHKPGYLANDRLLPQRVLEQHKLTKEQWEERIQNWHEEHRGMLREDSMMEYLKIAQDLEMYGVNYFEIKNKKGTELWLGVDALGLNIYEHDDKLTPKIGFPWSEIRNISFNDKKFVIKPIDKKAPDFVFYAPRLRINKRILALCMGNHELYMRRRKPDTIEVQQMKAQAREEKHQKQLERAQLENEKKKREIAEKEKERIEREKEELMERLRQIEEQTVKAQKELEEQTRKALELEQERQRAKEEAERLDRERRAAEEAKSAIAKQAADQMKNQEQLAAELAEFTAKIALLEEAKKKKEEEATEWQHKAFAAQEDLEKTKEELKTVMSAPPPPPPPPVIPPTENEHDEQDENSAEASAELSSEGVMNHRSEEERVTETQKNERVKKQLQALSSELAQARDETKKTQNDVLHAENVKAGRDKYKTLRQIRQGNTKQRIDEFEAM
B2: recombinant mouse moesin (natural protein)
chain: MPKTISVRVTTMDAELEFAIQPNTTGKQLFDQVVKTIGLREVWFFGLQYQDTKAFSTWLKLNKKVTAQDVRKESPLLFKFRAKFYPEDVSEELIQDITQRLFFLQVKEGILNDDIYCPPETAVLLASYAVQSKYGDFNKEVHKSGYLAGDKLLPQRVLEQHKLNKDQWEERIQVWHEEHRGMLREDAVLEYLKIAQDLEMYGVNYFSIKNKKGSELWLGVDALGLNIYEQNDRLTPKIGFPWSEIRNISFNDKKFVIKPIDKKAPDFVFYAPRLRINKRILALCMGNHELYMRRRKPDTIEVQQMKAQAREEKHQKQMERALLENEKKKRELAEKEKEKIEREKEELMEKLKQIEEQTKKAQQELEEQTRRALELEQERKRAQSEAEKLAKERQEAEEAKEALLQASRDQKKTQEQLASEMAELTARISQLEMARKKKESEAVEWQQKAQMVQEDLEKTRAELKTAMSTPHVAEPAENEHDEQDENGAEASAELRADAMAKDRSEEERTTEAEKNERVQKHLKALTSELANARDESKKTANDMIHAENMRLGRDKYKTLRQIRQGNTKQRIDEFESM
B3: GST fusion protein with the cytoplasmic domain of mouse CD44 (domain or fragment)
chain: NSRRRCGQKKKLVINGGNGTVEDRKPSELNGEASKSQEMVHLVNKEPSETPDQCMTADETRNLQSVDMKIGV
B4: recombinant mouse ezrin (natural protein)
chain: MPKPINVRVTTMDAELEFAIQPNTTGKQLFDQVVKTIGLREVWYFGLQYVDNKGFPTWLKLDKKVSAQEVRKENPVQFKFRAKFYPEDVAEELIQDITQKLFFLQVKDGILSDEIYCPPETAVLLGSYAVQAKFGDYNKEMHKSGYLSSERLIPQRVMDQHKLSRDQWEDRIQVWHAEHRGMLKDSAMLEYLKIAQDLEMYGINYFEIKNKKGTDLWLGVDALGLNIYEKDDKLTPKIGFPWSEIRNISFNDKKFVIKPIDKKAPDFVFYAPRLRINKRILQLCMGNHELYMRRRKPDTIEVQQMKAQAREEKHQKQLERQQLETEKKRRETVEREKEQMLREKEELMLRLQDYEQKTKRAEKELSEQIEKALQLEEERRRAQEEAERLEADRMAALRAKEELERQAQDQIKSQEQLAAELAEYTAKIALLEEARRRKEDEVEEWQHRAKEAQDDLVKTKEELHLVMTAPPPPPPPVYEPVNYHVQEGLQDEGAEPMGYSAELSSEGILDDRNEEKRITEAEKNERVQRQLLTLSNELSQARDENKRTHNDIIHNENMRQGRDKYKTLRQIRQGNTKQRIDEFEAM

The target in test [1] is T1, CD44 of BHK cells (hamster (endogenous in BHK), UniProt Q60522 23-431).
T1 sequence: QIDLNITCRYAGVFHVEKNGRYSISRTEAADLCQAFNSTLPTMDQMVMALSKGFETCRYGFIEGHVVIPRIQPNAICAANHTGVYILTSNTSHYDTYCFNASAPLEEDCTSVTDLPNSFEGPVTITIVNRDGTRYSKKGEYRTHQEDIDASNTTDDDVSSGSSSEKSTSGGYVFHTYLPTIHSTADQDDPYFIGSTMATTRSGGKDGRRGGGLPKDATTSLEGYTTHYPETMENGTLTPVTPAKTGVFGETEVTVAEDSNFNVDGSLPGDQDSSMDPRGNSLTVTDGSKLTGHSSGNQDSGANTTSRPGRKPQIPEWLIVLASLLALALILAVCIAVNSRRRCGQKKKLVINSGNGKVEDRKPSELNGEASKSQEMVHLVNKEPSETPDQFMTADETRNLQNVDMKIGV
Nature of the test: co-sedimentation.

Test [2] concerns the target B1. Put plainly: pull-down.
Test [3] addresses B4. Nature of the test: pull-down.
The target in test [4] is B2. Nature of the test: pull-down.

Consider B1, for which the “amount recovered in the insoluble fraction (of about 0.8 ug added)” value in test [1] was about 0.05 µg.

Consider B2, for which, in test [1], the “amount recovered in the insoluble fraction (of about 0.8 ug added)” value was about 0.05 µg.

B3: the binding result in test [2] and in test [3] was “binds” each time. Moreover, the Kd in test [4] came to 9.3 ± 1.6 nM.

Take B4: in test [1], the “amount recovered in the insoluble fraction (of about 0.8 ug added)” value was about 0.05 µg.

For the origin of these results see publication PMC2121020 (The Journal of Cell Biology, 1996).
